According to patent US20040086947A1:
No end group written: not given here.

Legend:
[1] = substrate: FPB antiserum (rabbit polyclonal antiserum to human fibrinopeptide B, R4097, bleed I3); assay: competitive ELISA; synthetic FPB in solution against FPB antiserum binding to FPB-coated wells
[2] = substrate: FPB antiserum (rabbit polyclonal antiserum to human fibrinopeptide B, R4097, bleed I3); assay: competitive ELISA; reference synthetic FPB
[3] = substrate: FPB antiserum (rabbit polyclonal antiserum to human fibrinopeptide B, R4097, bleed I3); assay: competitive ELISA; des-arg FPB in solution against FPB antiserum binding to FPB-coated wells

IC50 [1] [nM] | cross-reactivity (IC50 of FPB divided by IC50 of des-arg FPB times 100) [2] [%] | IC50 [3] [nM] | Binder
6.7 |  |  | QGVNDNEEGFFSAR (also: N-terminal Gln or pyroglutamic acid not given here) [synthetic human fibrinopeptide B (FPB)]
 | 75 | 8.9 | QGVNDNEEGFFSA (also: N-terminal Gln or pyroglutamic acid not given here) [synthetic des-arginine fibrinopeptide B (des-arg FPB)]
